Changes are numbered by the printed parent chain. Numbers in names are those of the source.
T1: recombinant cynomolgous monkey PSMA extracellular domain (ECD) protein (Macaca fascicularis, UniProt Q04609 48-750 (human entry), biotin on the Avi tag)
T1 construct: also called cyno PSMA ECD; PSMG1
T1 chain: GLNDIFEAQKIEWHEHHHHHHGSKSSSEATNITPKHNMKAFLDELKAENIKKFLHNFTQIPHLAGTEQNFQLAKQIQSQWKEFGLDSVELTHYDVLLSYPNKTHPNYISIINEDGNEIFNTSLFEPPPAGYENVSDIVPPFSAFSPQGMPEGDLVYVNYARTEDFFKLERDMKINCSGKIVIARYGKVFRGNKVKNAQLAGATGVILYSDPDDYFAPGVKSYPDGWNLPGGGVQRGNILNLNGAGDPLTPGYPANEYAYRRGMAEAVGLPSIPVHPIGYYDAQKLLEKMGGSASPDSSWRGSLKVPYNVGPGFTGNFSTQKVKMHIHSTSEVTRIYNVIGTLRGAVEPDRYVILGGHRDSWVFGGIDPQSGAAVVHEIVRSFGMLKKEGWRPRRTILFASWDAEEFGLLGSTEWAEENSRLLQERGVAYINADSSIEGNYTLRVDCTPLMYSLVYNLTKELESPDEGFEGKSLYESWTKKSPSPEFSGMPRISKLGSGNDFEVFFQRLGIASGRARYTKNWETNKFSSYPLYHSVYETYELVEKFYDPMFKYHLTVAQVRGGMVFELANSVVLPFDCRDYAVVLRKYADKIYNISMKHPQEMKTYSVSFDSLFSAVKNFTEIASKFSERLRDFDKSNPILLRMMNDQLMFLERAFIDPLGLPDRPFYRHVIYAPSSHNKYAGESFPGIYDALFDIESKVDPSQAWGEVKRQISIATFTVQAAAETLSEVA

T2: recombinant chimpanzee PSMA extracellular domain (ECD) protein (Pan troglodytes, UniProt Q04609 44-750 (human entry))
T2 construct: also called Chimp PSMA ECD; PSMG8
T2 chain: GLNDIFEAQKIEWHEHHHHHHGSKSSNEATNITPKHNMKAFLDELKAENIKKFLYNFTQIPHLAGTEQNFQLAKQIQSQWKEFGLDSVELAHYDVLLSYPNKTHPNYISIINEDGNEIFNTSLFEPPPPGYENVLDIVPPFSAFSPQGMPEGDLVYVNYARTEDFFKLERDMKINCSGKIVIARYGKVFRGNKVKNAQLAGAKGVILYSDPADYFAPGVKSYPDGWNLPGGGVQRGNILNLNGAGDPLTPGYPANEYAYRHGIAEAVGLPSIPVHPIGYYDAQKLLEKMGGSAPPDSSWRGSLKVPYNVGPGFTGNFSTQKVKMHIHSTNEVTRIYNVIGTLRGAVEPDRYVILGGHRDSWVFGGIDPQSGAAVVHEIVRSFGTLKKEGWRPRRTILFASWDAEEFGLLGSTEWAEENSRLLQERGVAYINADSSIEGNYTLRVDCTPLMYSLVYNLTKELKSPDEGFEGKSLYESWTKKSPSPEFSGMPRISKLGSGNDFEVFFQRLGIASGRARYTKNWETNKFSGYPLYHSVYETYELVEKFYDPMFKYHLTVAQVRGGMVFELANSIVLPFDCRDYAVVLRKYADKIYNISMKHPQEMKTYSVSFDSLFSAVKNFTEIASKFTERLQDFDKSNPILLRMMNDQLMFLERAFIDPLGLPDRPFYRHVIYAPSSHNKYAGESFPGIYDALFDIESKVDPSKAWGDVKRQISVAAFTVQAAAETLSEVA

B1: CD3B144 (antibody, V domains shown)
VH: EVQLVESGGGLVQPGGSLRLSCAASGFTFNTYAMNWVRQAPGKGLEWVARIRSKYNNYATYYAASVKGRFTISRDDSKNSLYLQMNSLKTEDTAVYYCARHGNFGNSYVSWFAYWGQGTLVTVSS
VL: QSVLTQPPSVSAAPGQKVTISCRSSTGAVTTSNYANWVQQLPGTAPKGLIGGTNKRAPGIPDRFSGSKSGTSATLGITGLQTGDEADYYCALWYSNLWVFGGGTKLTVL
notes: also called CD3H141/CD3L64
B2: CD3B152 (antibody, V domains shown)
VH: B1 VH with V5L, A64D, D76N, S80T, K89R, T90A, A99V, R100K
VL: B1 VL
notes: also called CD3H143/CD3L64
B3: PS3B12 (M87) (bispecific antibody, human IgG4 S228P, kappa, lambda, F234A L235A)
heavy chain, PSMA arm (PSMB130): not shown
light chain, PSMA arm (PSMB130): not shown
heavy chain, CD3 arm (CD3B217): EVQLLESGGGLVQPGGSLRLSCAASGFTFNTYAMNWVRQAPGKGLEWVARIRSKYNNYATYYADSVKGRFTISRDNSKNTLYLQMNSLRAEDTAVYYCVKHGNFGNSYVSWFAYWGQGTLVTVSSASTKGPSVFPLAPCSRSTSESTAALGCLVKDYFPEPVTVSWNSGALTSGVHTFPAVLQSSGLYSLSSVVTVPSSSLGTKTYTCNVDHKPSNTKVDKRVESKYGPPCPPCPAPEAAGGPSVFLFPPKPKDTLMISRTPEVTCVVVDVSQEDPEVQFNWYVDGVEVHNAKTKPREEQFNSTYRVVSVLTVLHQDWLNGKEYKCKVSNKGLPSSIEKTISKAKGQPREPQVYTLPPSQEEMTKNQVSLTCLVKGFYPSDIAVEWESNGQPENNYKTTPPVLDSDGSFLLYSKLTVDKSRWQEGNVFSCSVMHEALHNHYTQKSLSLSLGK
light chain, CD3 arm (CD3B217): QAVVTQEPSLTVSPGGTVTLTCRSSTGAVTTSNYANWVQQKPGQAPRGLIGGTNKRAPGTPARFSGSLLGGKAALTLSGAQPEDEAEYYCALWYSNLWVFGGGTKLTVLGQPKAAPSVTLFPPSSEELQANKATLVCLISDFYPGAVTVAWKADSSPVKAGVETTTPSKQSNNKYAASSYLSLTPEQWKSHRSYSCQVTHEGSTVEKTVAPTECS
notes: also called PSMB130 x CD3B217
B4: PSMB123 (antibody, human IgG4 S228P, kappa, F234A L235A, V domains shown)
VH: EVQLVQSGAEVKKPGESLKISCKGSGYSFTSYWIGWVRQMPGKGLEWMGIIYPGDSDTRYSPSFQGQVTISADKSISTAYLQWSSLKASDTAMYYCARGLPIWYLDYWGQGTLVTVSS
VL: EIVLTQSPATLSLSPGERATLSCRASQSVASDLAWYQQKPGQAPRLLIYFASNRATGIPARFSGSGSGTDFTLTISSLEPEDFAVYYCQQSITWPFTFGQGTKVEIKR
notes: IgG4 with S228P, F234A, L235A; also called mAb of Fab PSMB55
B5: PSMB127 (antibody, human IgG4 S228P, kappa, F234A L235A, V domains shown)
VH: EVQLLESGGGLVQPGGSLRLSCAASGFTFKSDAMHWVRQAPGKGLEWVSEISGSGGYTNYADSVKGRFTISRDNSKNTLYLQMNSLRAEDTAVYYCARDSYDSSLYVGDYFDYWGQGTLVTVSS
VL: B4 VL with A30S, D32Y, F50D, S91R, I92S, T93N, F96L
notes: IgG4 with S228P, F234A, L235A; also called mAb of Fab PSMB83
B6: PSMB130 (antibody, human IgG4 S228P, kappa, F234A L235A, V domains shown)
VH: QVQLVQSGAEVKKPGSSVKVSCKASGGTFKSYDISWVRQAPGQGLEWMGGIIPIEGTANYAQKFQGRVTITADESTSTAYMELSSLRSEDTAVYYCARDYPAGYGFDYWGQGTLVTVSS
VL: not shown
notes: IgG4 with S228P, F234A, L235A; also called mAb of Fab PSMB86

Experiments:
[1] = target: T3, human CD3ε on primary human T cells (human, UniProt P07766 23-207); experiment: FACS, primary human T cells
T3 construct: whole, on cells; Part of the TCR-CD3 complex on the cells; also called cell-surface CD3ε; CD3E
T3 sequence (P07766 23-207): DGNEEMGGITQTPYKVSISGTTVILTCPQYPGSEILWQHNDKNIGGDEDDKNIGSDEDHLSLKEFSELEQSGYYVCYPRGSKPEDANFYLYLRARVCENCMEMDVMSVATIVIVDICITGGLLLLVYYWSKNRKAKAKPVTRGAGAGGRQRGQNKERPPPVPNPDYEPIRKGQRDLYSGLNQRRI

[2] = target: T4, human PSMA (prostate specific membrane antigen), full length (human, UniProt Q04609 1-750); experiment: flow cytometry, bispecific antibody titrated on LNCaP cells (human PSMA), anti-human kappa light chain PE
T4 construct: On LNCaP or C4-2B cells (endogenous) or transduced HEK293F cells; also called FOLH1_HUMAN; hPSMA
T4 sequence (Q04609 whole entry): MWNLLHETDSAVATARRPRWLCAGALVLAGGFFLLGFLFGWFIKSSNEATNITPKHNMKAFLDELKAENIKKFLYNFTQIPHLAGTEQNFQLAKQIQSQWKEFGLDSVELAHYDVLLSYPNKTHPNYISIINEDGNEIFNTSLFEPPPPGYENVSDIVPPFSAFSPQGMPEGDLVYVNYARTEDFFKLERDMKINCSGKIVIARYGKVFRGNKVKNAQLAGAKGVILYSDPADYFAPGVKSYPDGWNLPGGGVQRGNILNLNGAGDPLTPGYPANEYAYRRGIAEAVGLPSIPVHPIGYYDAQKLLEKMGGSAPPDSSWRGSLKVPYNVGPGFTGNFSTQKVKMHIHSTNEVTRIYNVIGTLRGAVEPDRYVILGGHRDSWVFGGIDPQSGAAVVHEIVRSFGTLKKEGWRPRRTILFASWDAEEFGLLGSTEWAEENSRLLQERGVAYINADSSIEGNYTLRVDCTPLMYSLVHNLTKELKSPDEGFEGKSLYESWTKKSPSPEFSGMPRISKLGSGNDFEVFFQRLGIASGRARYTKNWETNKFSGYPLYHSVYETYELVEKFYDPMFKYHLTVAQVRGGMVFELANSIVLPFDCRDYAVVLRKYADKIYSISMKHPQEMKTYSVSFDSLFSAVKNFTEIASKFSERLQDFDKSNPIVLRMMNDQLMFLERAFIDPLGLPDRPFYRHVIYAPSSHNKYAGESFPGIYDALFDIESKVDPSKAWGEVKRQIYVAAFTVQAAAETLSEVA
Description: PSMA×CD3 bispecific antibodies were tested for binding to PSMA positive cell lines LNCAP, human PSMA-HEK, Chimpanzee-PSMA-HEK and Cynomolgous monkey PSMA-HEK. To assess the binding capabilities of the PSMA bispecific antibodies, the cell-binding assay was utilized (described previously). Briefly, PSMA expressing tumor cells are bound by bispecific antibodies at known concentrations and the bound antibody is detected by an anti-human kappa light chain PE conjugated detection reagent (Invitrogen). The Mean Fluorescents Intensity (MFI) is the measure of bound bispecific antibody. The MFI is converted to a relative EC₅₀. EC₅₀ is a commonly used dose-response curve, where the half maximal effective concentration or the EC₅₀ point is defined as the inflection point of the curve. EC₅₀ s were determined by measuring cell bound bispecific and known concentrations. […] The dose response curves were then diluted down to that of background or no bispecific binding. The inflection point of this curve reflects the EC₅₀ point. The calculated EC₅₀ is determined by taking the ug/ml amount of bispecific antibody at the EC₅₀ point and converting it to a molarity value based on the MW of the bispecific antibody. Bispecific antibodies were normalized for protein concentration and then incubated with the same number of cells expressing either human or cyno PSMA. […]

[3] = target: T1, recombinant cynomolgous monkey PSMA …; experiment: SPR ProteOn
[4] = target: T2, recombinant chimpanzee PSMA …; experiment: SPR ProteOn
[5] = target: T5, recombinant human PSMA extracellular domain (ECD) protein (human, UniProt Q04609 44-750); experiment: SPR ProteOn
T5 construct: also called human PSMA ECD

Row | Binder | binding result [1] | EC50 (read off the curve) [2] | Kd [3] | Kd [4] | Kd [5]
1 | B1 | no binding (tested: 10 µg/ml (normalised)) |  |  |  | 
2 | B2 | no binding (tested: 10 µg/ml (normalised)) |  |  |  | 
3 | B3 |  | ~1 µg/mL |  |  | 
4 | B4 |  |  | 66.7 nM | 14.3 nM | 9.03 nM
5 | B5 |  |  | 6.68 nM | 12.8 nM | 12 nM
6 | B6 |  |  |  | 31.7 nM | 29.6 nM
